Results on 39 sequences are retold here after the supplement of paper PMC9170038.

In data set [1] the test system is MS2 coat protein. Description: apparent KD of MS2 coat protein, switch OFF state (with FMN for OFF switches, without FMN for ON switches); designed switch direction (-1 OFF switch, 1 ON switch): -1; higher = weaker reporter binding. Conditions: FMN input: 0 or 200 uM; Eterna round: R93 (includes R88 designs). A digest of the protocol: (§1)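 The buffer was 100 mM Tris-HCl pH 7.5 with 80 mM KCl and 4 mM MgCl2, used without or with constant ligand. In it, RNA switches transcribed on-chip from Illumina sequencing clusters were titrated with SNAP-549-labelled MS2 coat protein in twofold steps from 0.7 or 1.5 nM to 3 µM. Apparent KD for each design is the median of its normalised cluster binding-curve fits.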

Data set [2] concerns MS2 coat protein. Description: apparent KD of MS2 coat protein, switch ON state; designed switch direction (-1 OFF switch, 1 ON switch): -1; higher = weaker reporter binding. Conditions: FMN input: 0 or 200 uM; Eterna round: R93 (includes R88 designs). A digest of the protocol:
as §1

As to “AACAGUACAGGAUAUACAUGAGGAUCACCCAUGUAAAAAAAGGGUGGCGUACCACAAAGUAGAAGGGUACUGGA [Moding Maslow revisited (73) 10]”, the “apparent KD of MS2 coat protein” value turned out to be 44.1 nM with MS2 coat protein [1] and 109 nM in the data set with MS2 coat protein [2].
On the same counts, the results for “AACAGUACAGGAUAUACAUGAGGAUCACCCAUGUAAAAAAGGGCUGGCGUACCAGAAAGUAGAAGGGUACUGGA [Moding Maslow revisited (73) 9]” are 88.1 nM and 30.6 nM.
“AACAGUACAGGAUAUACAUGAGGAUCACCCAUGUAAAGGGAAUAAAACAAAAAAAAAUGUAGAAGGGUACUGGA [Mat - Exclusion 3 - Eli mod - D66]”: the “apparent KD of MS2 coat protein” value in the data set with MS2 coat protein [1] stood at 110 nM; in the data set on MS2 coat protein [2], 75.1 nM.
For “AACAGUACAGGAUAUACAUGAGGAUCACCCAUGUCACAACAAAGCAGCGUAACACAAAGUAGAAGGGUAAUGGA [Ruby 16]”, in that order: 39.5 nM and 48.6 nM.
On the same counts, the results for “AACAGUACAGGAUAUACAUGAGGAUCACCCAUGUGAAAAUAAAGUGGCGUACCACAAAGUAGAAGGGUACUGGA [Moding Maslow revisited (73) 4]” are 101 nM and 28.8 nM.
As to “AACAGUACAGGAUAUACAUGAGGAUCACCCAUGUGAAAGAAAAGUGGCGUACCACAAAGUAGAAGGGUACUGAA [Mat - Exclusion 3 - JL mod - D28]”, the “apparent KD of MS2 coat protein” value in the data set with MS2 coat protein [1] was found to be 134 nM; in the data set with MS2 coat protein [2], 30.2 nM.
On the same counts, the results for “AACAGUACAGGAUAUACAUGAGGAUCACCCAUGUGAAGAUUAAGAAGAAACCCACAAAGUAGAAGGGUACUGGA [Ruby 92]” are 47.4 nM and 29 nM.
For “AACAGUACAGGAUAUACAUGAGGAUCACCCAUGUGAGAAUUAAGUGGAAGACCACAAAGUAGAAGGGUACUGAA [Mat - Exclusion 3 - JL mod - D10]”, in that order: 189 nM and 28.4 nM.
On to “AACAGUACAGGAUAUACAUGAGGAUCACCCAUGUGAUAUAAAUAAAACAAAAAUAAAAGUAGAAGGGUACUGGA [Ruby 44]”, for which the results for the “apparent KD of MS2 coat protein” value with MS2 coat protein [1] and in the data set on MS2 coat protein [2] were 70.8 nM and 25.7 nM, respectively.
For “AACAGUACAGGAUAUACAUGAGGAUCACCCAUGUGAUUAUCAAGUGCCGUAGCACGAAGUAGAAGGGUACUGGA”, in that order: 243 nM and 60.3 nM.
On the same counts, the results for “AACAGUAGAGGAUAUACAUGAGGAUCACCCAUGUGAGAAACCACUGGCGUACCAGAAAGUAGAAGGCUACUGGA [Moding Maslow Revisited (73) 30]” are 34.6 nM and 103 nM.
On the same counts, the results for “AACAUACAUGAGGAUCACCCAUGUCAGGAUAUGCCGGGUUAGAACCAAAAAAAAAAACGUAGAAGGGACAAAAA [Bilbo Confounded 4 - Jieux - Exclusion 1]” are 140 nM and 234 nM.
For the sequence “AACAUACAUGAGGAUCACCCAUGUCAGGAUAUGCCGGGUUAGAGCCAACUAAAAAAACGUAGAAGGGACAAAAA [Bilbo Confounded 6 - Jieux - Exclusion 1]”, the “apparent KD of MS2 coat protein” value in the data set with MS2 coat protein [1] is 55.7 nM; in the data set on MS2 coat protein [2], 62.7 nM.
On the same counts, the results for “AACAUGUCAGGAUAUAUAAGAAAAGAAAAGAAAGAAAAGAAAUAGAAGGGACAUGAGGAUCACCCAUGUAAGAA [EteRNA is fun!]” are 29 nM and 45.2 nM.
For “AACAUGUCAGGAUAUGUAAAAAAAAAAAAAAAAAAAAAAAUACAGAAGGGACAUGAGGAUCACCCAUGUCAGGG [EX4 391: Minimal 3]”, in that order: 55.3 nM and 69.8 nM.
On the same counts, the results for “AACAUGUUAGGAUAUGAAAGAAAAGAAAAGAAAGAAAAGAAUCAGAAGGAACAUGAGGAUCACCCAUGUAAGAA [EteRNA is fun!]” are 19.8 nM and 25.6 nM.
On to “AACCAACAUGAGGAUCACCCAUGUCAGGAUAUGCAUACAACAUACAACAUACAUCAAAGCAGAAGGGACAAAAA [Amethyst 83]”, for which the “apparent KD of MS2 coat protein” value with MS2 coat protein [1] was 24.1 nM; in the data set on MS2 coat protein [2] it was 26.1 nM.
On the same counts, the results for “AACGAAUGAGGAUAUACAAACAGAAAAAUCAGACAUAACAGACAUGAGGAUCACCCAUGUAGAAGGCAUAAACA [JR_Exc002_Sub902]” are 18.7 nM and 25.5 nM.
Turning to “AACGAGUCAGGAUAUGCUAUAAAUUAAUAAAUAAAAUUAUAGCAGAAGGGACAUGAGGAUCACCCAUGUAAAUA [JR_Exc004_Sub201]”, the “apparent KD of MS2 coat protein” value amounted to 42.2 nM in the data set on MS2 coat protein [1] and 45.7 nM in the data set with MS2 coat protein [2].
On the same counts, the results for “AACGCACAUGAGGAUCACCCAUGUCAGGAUAUCGUGGCGGGAAAAACCGGGAAACGCACGAGAAGGGACAAAAA [EX1 Malc#18 Mod 14 - Jieux - Exclusion 1]” are 42.2 nM and 47.6 nM.
As for “AACUAGCUAGGAUAUACAUGAGGAUCACCCAUGUAAAAAAAAAAAAAAAAAUUUUUAUGUAGAAGGAGCUAGUA [Design 1 - Brourd - Exclusion 3]”, the “apparent KD of MS2 coat protein” value came out at 35.4 nM in the data set on MS2 coat protein [1] and 27.9 nM in the data set with MS2 coat protein [2].
Regarding “AACUAGCUAGGAUAUACAUGAGGAUCACCCAUGUAAAAAAAAAAAAAAAGAUUUAUAUGUAGAAGGAGCUAGUA [Design 3 - Brourd - Exclusion 3]”, the “apparent KD of MS2 coat protein” value came out at 61.8 nM in the data set on MS2 coat protein [1] and 31.6 nM with MS2 coat protein [2].
For “AACUCGUCAGGAUAUGCGCACAGAUAAUACGCUACACAAAAGCAGAAGGGACAUGAGGAUCACCCAUGUAAAUA [JR_Exc004_Sub503]”, in that order: 22.1 nM and 35.1 nM.
On the same counts, the results for “AACUGACAUGAGGAUCACCCAUGUCAGGAUAUGACAUCGAGAAAUAAAUAAAUCGUUGUCAGAAGGGACAUGAA [Design 79: Sub-opt TB]” are 13.4 nM and 17.5 nM.
For “AACUGACAUGAGGAUCACCCAUGUCAGGAUAUGACUUCAAAAAAAAAAAAAAAUGAUGUCAGAAGGGACAUGAA [Design 62: Sub-opt L]”, in that order: 19.3 nM and 24.4 nM.
For “AACUGACAUGAGGAUCACCCAUGUCAGGAUAUGCUUCAUAAAAACAAACAAAAAUGAUGCAGAAGGGACAUGGG [Design 31 :P Sub-opt 7]”, the “apparent KD of MS2 coat protein” value with MS2 coat protein [1] is 39.5 nM; in the data set on MS2 coat protein [2], 17.1 nM.
On the same counts, the results for “AACUGUACAGGAUAUACAUGAGGAUCACCCAUGUGAGAAUUAAGUGGCGUACCACAAAGUAGAAGGGUACAGGA [Mat - Exclusion 3 - JL mod - D15]” are 192 nM and 36.4 nM.
On the same counts, the results for “AAGAAACAAGGAUAUACAAGGAAGAAAGAAAAGAAAAGAAAACAUGAGGAUCACCCAUGUAGAAGGUGUUAGAA [EteRNA is fun!]” are 27.9 nM and 40.3 nM.
On to “AAGAAACAAGGAUAUACAUGAGGAUCACCCAUGUAAAAGAAAGAAAGGGAAGAGAAAAGUAGAAGGUGUAAGAA [Publius Rubrius Barbarus]”, for which the “apparent KD of MS2 coat protein” value with MS2 coat protein [1] was found to be 46 nM; with MS2 coat protein [2] it was 26.1 nM.
On the same counts, the results for “AAGAAACAUGAGGAUCACCCAUGUAAGGAUAUGUAAAAGAAAAGAAAAGAAAGAAGAAACAGAAGGUACAAAGG [Wahankh Intef II]” are 33.7 nM and 46 nM.
As to “AAGAAACAUGAGGAUCACCCAUGUCAGGAUAUAGAAAAGAAAAGAAAAGAAAGAAGAACUAGAAGGGACAAAGG [Menkare]”, the “apparent KD of MS2 coat protein” value is 34 nM in the data set with MS2 coat protein [1] and 34.1 nM in the data set on MS2 coat protein [2].
On the same counts, the results for “AAGAAACAUGAGGAUCACCCAUGUCAGGAUAUCGAAAAGAAAAGAAAAGAAAGAAGAACGAGAAGGGACAAAGG [Qakare Ibi]” are 67.8 nM and 59.6 nM.
For “AAGAAACAUGAGGAUCACCCAUGUCAGGAUAUGCAAGACUGACGAAAGUCAGUCAAAAGCAGAAGGGACUAGAA [7-pair stack]”, in that order: 51.5 nM and 28 nM.
For “AAGAAACAUGAGGAUCACCCAUGUCAGGAUAUUGAAGAAAGAAAGAAAGAAAGAAGAACAAGAAGGGACAAAGG [Gaius Vitrasius Pollio]”, in that order: 33.3 nM and 44.3 nM.
“AAGAAACAUGAGGAUCACCCAUGUGAGGAUAUACAAGAAAGAAAGAAAGAAAGAAGAAGUAGAAGGCACAAAGG [Gaius Valerius]”: the results for the “apparent KD of MS2 coat protein” value with MS2 coat protein [1] and with MS2 coat protein [2] were 14.4 nM and 31.4 nM, respectively.
For “AAGAAACAUGAGGAUCACCCAUGUGAGGAUAUCAAAAAGAAAAGAAAAGAAAGAAGAAUGAGAAGGCACAAAGG [Mery—]”, in that order: 32.5 nM and 30.5 nM.
Turning to “AAGAAACAUGAGGAUCACCCAUGUGAGGAUAUGCAAAAGAAAAGAAAAGAAAGAAGAAGCAGAAGGCACAAAGG [Neferkahor]”, the “apparent KD of MS2 coat protein” value turned out to be 138 nM with MS2 coat protein [1] and 49.1 nM in the data set with MS2 coat protein [2].
For “AAGAAAGGAGGAUAUACAUGAGGAUCACCCAUGUAAAAGAAAGAGGGAAAAGAGAAAAGUAGAAGGCCUAAGAA [Ptolemy IX Soter II]”, in that order: 39.1 nM and 30.8 nM.
On the same counts, the results for “AAGAACACAGGAUAUACAUGAGGAUCACCCAUGUAAAAGAAAGAAAGGGAAAAGAAAAGUAGAAGGGUGAAGAA [Aakheperre Pasebakhenniut I]” are 72.6 nM and 40 nM.
